Laboratory results: the domain aggregation screens of Martell et al. (2025)

Test: soluble fraction after stress (log2 fold change); higher = more stays soluble; pooled small domains, quantitative proteomics
Details: stress: 75 degC
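Note: 20 min heating vs room temperature control held 20 min.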

Row | Sequence | soluble fraction (log2)
1 | HMRGFGYVRRLPSKRYQASYAGPDLQRHVAPTTFTTKADAESWLGAERKVVESGSWRPPAVREAEARLS | 0.462
2 | HMRGLIEPLSQRELEVLMLMARGQSNAHIADQLNISENTIKWHGRNIFGKLGVSNRTEAVITSQEMGMLAT | -0.727
3 | HMRGRFGNAAPARNLGDHPQGGAINVKAGRYGPYVSWGKVNATLPKDSDPEKVTLEEAVALIAAKQSGQG | -0.111
4 | HMRGVDRPLTLPRHWRRNAGRLVKVTLANGSAVTGRVLDPGEERVTLEVSGERHEVAYADVKKALVQVEF | -2.07
5 | HMRHLSVPNRQVEGALDHIRSQGWLAEGMRVFASEDGSARLIPLGPGAPLEMLEPLAKFDVISHEGKPY | -0.149
6 | HMRHSLAAALTELRRLAALDLGDFFRFEYVSHTDSLGGKQQAYTEGIRVSFGVYLGVNKKDRLNVDPVV | -3.42
7 | HMRHTRQRQAVLDALVRSGQALSPQDLLGQAKSAVPSLNLSTVYRQIKGLQDAGQIVRVELPGQPPRFEM | -0.0693
8 | HMRIAQYRQIENDLLEQINLGYYKKGDLIPTELELSATYHVSRVTVRKATDNLVAKGILQRVAGVGTFVSR | -3.14
9 | HMRIATVTPIEEDQASDRVVAVYNDIKSTKQIDFIPNFWKVIAVNPDLLEQVWGQLKTLMHPEEVG | -0.996
10 | HMRIEDTMDYINKIKEKLKNNGGVITSKEFTRSNIPTIYLTRMVETGELIRIDRGIYINSSG | -0.781
11 | HMRIEYYDDEELDRYIGTPASGYREAAVEEFREILLTLDADDVPGWVRSLQLRGIEFPESLRPELYL | -0.568
12 | HMRIFDDNMIFPTEAEISAALKRLVMDLPKVGFLQGHGERAVDNVGERAYSMFTHANNFRYALINQGFVT | -0.029
13 | HMRIHKQLGDRIRNLRLSSGMNQEELAFKSGISAAHLGQIERGLKSPTISTIQKIAKALNVTLPILF | -0.631
14 | HMRININNASARQIADALPGVGLKTARDIKDFQTTLSGERYTRLDQLHSIKRVDWDEIFKADLVRV | -0.0802
15 | HMRISMRDQVYEIIKNRILSREYSLGEPINIVHLSKELGISNTPIREALSQLETERLITINSNQKYHVT | -0.0513
16 | HMRKDEFLQTLRRALNGNVPPRVVEENVRYYDGYISDEVRKGRSEEEVIEEIGDPRLIARTIEDTT | 0.105
17 | HMRKDRKVLMERGRHIFNDLLEKEGIVATNQLMTKLLASHHLRNRDELYLMLANDDISLSSKEIKDLS | -0.409
18 | HMRKEDYLPIGSVINMDDRKFRVDSVDFDKDKVSLQDMALADARMPIFWEEPLTVVRELYEQQDE | 0.135
19 | HMRKEPSYASDIITRLKEADLIVVEGTLYPLLTRLKKDGLLSYEWRESTQGPPRKYYALTLDGET | -0.47
20 | HMRKIGDVLRLHAGGLSKRRIAVSLNIGRTAVGDYISRARRAGLGWPLPEDLSEEALERLLFPPP | -3.08
21 | HMRKIVEGVLTKKEGKWYLLTDIETYKISDASAEYHKAELNDRASALIPAQNPKVPFASLEKVFN | -1.01
22 | HMRKLHFVMSEIYEDHPWIGSKLQDVFLPKDIRVVLVERDSKQFMPNGQTLFELGDRLTLSALHYDPA | -2.8
23 | HMRKLTDRQRQILDLIKTIIAETGAPPTRAEISTALGFKSANAAQEHLQALAQKGMIDLVSGASRGIRLRG | -0.99
24 | HMRKMELTEAAEKLIEEPDVVSAYRNMQQIFQQWREIGPVPREQRDEVWSHFKDLMTQVNRRHQAHFEN | 0.113

Row | Sequence | soluble fraction (log2)
25 | HMRKPLDQSWVPDDDAMKILTNSGIEKEFIKNEIPEFILYWSDKGEISDSWNTKFISQIRRQWAKNQ | -0.0241
26 | HMRKSAVSSTLTSIEGIGATRAKALLKHFKTVAAVSEADLKELEDAPGMTRPSALRVYEYFHGK | -0.342
27 | HMRKSLGEIVFDRMERAIKSGAYSPDERLPTELDLAAEFEVSRPVIRDALKRLRERGLIYSRQGAGSFVRA | -0.813
28 | HMRKTIQDFLSSNKVDIAKLLTLALEKTKEDLYKNLSYNLTNKELEKLKLLIKKREQGIPFAYLS | -0.348
29 | HMRLADHVVEKLLALVQERGLQPGQKLPAERQLAEVLGVSRTSVREAIQKLVSQGVLSARRGDGTYVQS | -0.302
30 | HMRLANGIGTVYKLSGNRRNPYIVRKTTGWEIDEESGKAKQKYITIGYAPTRAKGLEMLMDYNKNP | -0.895
31 | HMRLDHIFSVVERLKGVSLGAGDRLEVQKYEDLLTVYKSKNALSSEEAQTLNDILASLLKMMAKYD | -1.05
32 | HMRLDSELVSARLHRFMGTNRKPDGEIVEKIAAILEGHPIETLDAFLQSLNGRKIKSYGFFPTVLRREIAN | -0.319
33 | HMRLEEVSVPQRLLAAIAEEREVQIGIVDGRGGTRVLRVEPLALEGGRLRARDVESGEEFTVLIHRVLL | -1.19
34 | HMRLLAESIARGLDPEGSGGLWAKEAGAEALKLMETLAAEAPHGGSFTAAAYRDLFESLVHQGEVREA | -0.00417
35 | HMRLLGEPLAGRLKKDVPVVTGRSTESKAIAQFFELRWSHLPDPEARTISVASGRIDFMDVGATRFSLR | 0.0725
36 | HMRLSDSEFESIENAIKEKLENSALTADVLVKELSFDEDKIWKVIRWLEDAEKISEDEAGTLLWKPR | -0.0971
37 | HMRLSESLLDDIPGIGAARKRALLQSFGSVRKLRHADAEEIAAKVPGIGLNFAEKIVEALRKK | 0.391
38 | HMRLTTTPKTARGLTTMNRIIRAAEVEFGRKGYHYTGITDIAQRAKVASGTIYLYFTDKYSLYVHLLT | 0.159
39 | HMRLYTQDVAVLNRDVIQGEVITSDMVTTVNVHKRTVPTGALNLSEIPGNVAKFNIPASIPITASMVTK | -0.0186
40 | HMRMLLKELLIQYEVKNDKSHVEVAKEVGVSLSTYYRWLNGESLHLKKRTIDRLSEVLHYDINQVVEES | -2.52
41 | HMRMLSEGAQRMLRGLAVLEEASADRLLELHQGDYPGFVRSLFALESAGLFQRNGSGTWIRR | -0.91
42 | HMRMNASERQNQIVDLLSQNGVMKIMDIADHFNVSRETIRRDLIILEDDNRIKKWFGGVISAN | -0.706
43 | HMRMQRYYLTDMSEKGREALPGVLDEMGYAGRYTMSDNSIAINSNMIVLSKAIKRAEDIAHNE | -0.089
44 | HMRMRPNERQKRIIELLSFRRHETIGNFANEFGVSRDTIKRDIITLQEEYPIISERGYEGGISLPDGYYI | -1.08
45 | HMRMSLDEAKAVVLPIGEYKGRNMGEVLAIKPELIDFYASQKFNSSKYPYLKEAAQVILENQ | 0.114
46 | HMRMSPRERKIYQFIENHPGTKSGEMAEKLGIPLPTIKRLLSDMVASKLLQKHGTGAGTNYSIEE | 0.43
47 | HMRMSQLSRLISILTLLKSKRLLTATELAEKYDVSIRTVYRDIRKLEEAGIPVYTIEGRGYSLMDNYT | -1.42
48 | HMRNANENTLKDLPVAVPNIHVSNIEEKKDFHLIQLEYSQEFDPREDLFNFAVNSSWVILKMTPT | 0.215

Row | Sequence | soluble fraction (log2)
49 | HMRNDIFDQLTEREMQILQEVAKGYRNKQIADHLFISESTVKVHMKSLLKKLQVPSRTAATVLYLERYG | -1.55
50 | HMRNEFEAHSDGTRIQLNDRSKATFSVYDVQGRLIHSFQDFSGSSFNIEPKNQLLIITRETAEGVSVKKLV | 0.34
51 | HMRNKTVKEVLDYIEKNSEFIFFYYSKAIDTKRIVSLSVKDQPITVILDQLFKNTDVLYEIKDRQISLKRE | 0.1
52 | HMRNTETMKEIQAFVEDYFFEYHQSPSMQKVADAIGTSKSTAYYYVMEMARNGMLHYDGKTIETPHTQKS | -0.82
53 | HMRPDDPYLVIGASREMGDEELKRHYRRLVAETHPDRGIARGLPAEAIAIATRRLAAINAAWDAIERERGL | 0.000257
54 | HMRPDSFEAGEAEAGSRLDRLLAARLGIPRNQVQQWIGGGRVTVDAEPVRASLVVRAGMRIAWDPPPPP | -1.56
55 | HMRPEKLVLKALRGAHGPLSAEEVAGRIEADGGAGLDVARVEHVLGQLERSGTVAALGGGKYLALR | 0.692
56 | HMRPHDDHLREQLLGIATETIARTGVEGLSLRTLATDAGTSTSAVYQLFGSRAALLDAVYLRVLE | -1.47
57 | HMRPLISQTLRIDRGEGDIAGPLGVLAKEYPHLSMGSYPFQKDGIYGAHVVIRGSDPGMVEAAMDKLKAAF | 0.338
58 | HMRPLTPLEKLTPDADGKYYHIVQSGETLSWIAKLYETTAEKLQAWNNLFSSDIFPNQKLLLQVTPP | 0.134
59 | HMRPPLEWGTHGEITTRTVASGYVRASARVRLWDGELQRMTATASTASDARASLQHRIAERLRFSEL | -1.45
60 | HMRPPLRAAIIDHLARDWHTVAELARLLPASGAHVSRLVVELRAVGAVDERISHPDWPGNRPTEYRLRRA | -3.57
61 | HMRPTHYSGPSVIAMINNRVWFSDGSRLAPGEHHDDLEVVGLSPPWSAKVRWQGVEFDVGLFE | -2.35
62 | HMRQGHLDLLRQIHALPPSTREVVYLRAFGGLSFREIGDVLGRTETWARVTFYRGKEALRKG | -0.106
63 | HMRQHHMIISTKLGTPKEELAKLVSGFEDQGLRVSVITGTDYTVIGLVGDTTHLDEKRIRANPYVDNVQRV | -0.813
64 | HMRQIMIIVLKSTATKEDSLLFKNKLEQEYGVKVNEWTGVESTVLGLIGDTTKIDIDYISAQDIVESVKRV | -2.27
65 | HMRQKTTFFATESFELPNGEKVEEGQIFRLNDGAFNIAEQQGITRFLTSEANYGRMIAANAEVEKAKLDA | 0.605
66 | HMRQLISIYNNTIGADEIDQMRNILSNSGYKEGVDFAVQTADKKSVILVRRDLAGMIQEQLSGEGLPS | -0.119
67 | HMRQNPESFLNHKVKKNESLESLTKKYELTENEIIFYNPLIQKIGLKKRMILKIPIYNNQNLVTKSVD | -0.15
68 | HMRQPRGQRVTVREASSLLPFLFAHLTDRSRSAVKSLLRHGQIWVNGRVTTHFDMPLRPGDTVLISHERG | -1.33
69 | HMRQSQEVSGGERYRRLTAYLDTHPFITRKEYSGITGLLKNKALNDLNLLVNKGYLEAMGRGSHKVYVRPM | -0.86
70 | HMRQSSLRTRELLIDAARQLFARFGVEKTTMNDIAEASKRGRRTVYMYFNSKSDVFYAVVGRE | -0.0881
